The results in this text go back to ChEMBL document CHEMBL1135258, “Substrate spectrum of tyrocidine thioesterase probed with randomized peptide N-acetylcysteamine thioesters” (Bioorg Med Chem Lett, 2002).

The Km is the substrate concentration at which the rate is half of its maximum.

Common to all, as to conditions: Brevibacillus brevis
Substrate in series [1]: CC(=O)NCCSC(=O)[C@H](CC(C)C)NC(=O)[C@H](CCCN)NC(=O)[C@@H](NC(=O)[C@H](Cc1ccc(O)cc1)NC(=O)[C@@H](NC(=O)[C@H](CC(N)=O)NC(=O)[C@@H](Cc1ccccc1)NC(=O)[C@H](Cc1ccccc1)NC(=O)[C@@H]1CCCN1C(=O)[C@H](N)Cc1ccccc1)C(C)C)C(C)C
The experiment in a line: (§1) Apparent kinetic constant (Km) determined for tyrocidine thioesterase amplified from Bacillus brevis (ATCC8185).

Substrate in series [2]: CC(=O)NCCSC(=O)[C@H](CC(C)C)NC(=O)[C@H](CCCN)NC(=O)[C@@H](NC(=O)[C@H](Cc1ccc(O)cc1)NC(=O)[C@H](CC(C)C)NC(=O)[C@H](CC(N)=O)NC(=O)[C@@H](Cc1ccccc1)NC(=O)[C@H](Cc1ccccc1)NC(=O)[C@@H]1CCCN1C(=O)[C@H](N)Cc1ccccc1)C(C)C
Described as §1.

Substrate in series [3]: CC(=O)NCCSC(=O)[C@H](CC(C)C)NC(=O)[C@H](CCCN)NC(=O)[C@@H](NC(=O)[C@H](Cc1ccc(O)cc1)NC(=O)[C@H](CCC(N)=O)NC(=O)[C@@H](NC(=O)[C@@H](Cc1ccccc1)NC(=O)[C@H](Cc1ccccc1)NC(=O)[C@@H]1CCCN1C(=O)[C@H](N)Cc1ccccc1)C(C)C)C(C)C
The series is described as §1.

Substrate in series [4]: CC(=O)NCCSC(=O)[C@H](CC(C)C)NC(=O)[C@H](CCCN)NC(=O)[C@@H](NC(=O)[C@H](Cc1ccc(O)cc1)NC(=O)[C@H](CCC(N)=O)NC(=O)[C@H](CC(N)=O)NC(=O)CNC(=O)[C@H](Cc1ccccc1)NC(=O)[C@@H]1CCCN1C(=O)[C@H](N)Cc1ccccc1)C(C)C
The series is described as §1.

Substrate in series [5]: CC(=O)NCCSC(=O)[C@H](CC(C)C)NC(=O)[C@H](CCCN)NC(=O)[C@@H](NC(=O)[C@H](Cc1ccc(O)cc1)NC(=O)[C@H](CCC(N)=O)NC(=O)[C@H](CC(N)=O)NC(=O)[C@@H](Cc1ccccc1)NC(=O)[C@H](CC(N)=O)NC(=O)[C@@H]1CCCN1C(=O)[C@H](N)Cc1ccccc1)C(C)C
The description is as §1.

Substrate in series [6]: CC(=O)NCCSC(=O)[C@H](CC(C)C)NC(=O)[C@H](CCCN)NC(=O)[C@@H](NC(=O)[C@H](Cc1ccc(O)cc1)NC(=O)[C@H](CCC(N)=O)NC(=O)[C@H](CC(N)=O)NC(=O)[C@@H](Cc1ccccc1)NC(=O)[C@H](Cc1ccccc1)NC(=O)[C@@H]1CCCN1C(=O)[C@H](N)Cc1ccccc1)C(C)C
Described as §1.

Substrate in series [7]: CC(=O)NCCSC(=O)[C@H](CC(C)C)NC(=O)[C@H](CCCN)NC(=O)[C@@H](NC(=O)[C@H](Cc1ccc(O)cc1)NC(=O)[C@H](CCC(N)=O)NC(=O)[C@H](CC(N)=O)NC(=O)[C@@H]1CCCN1C(=O)[C@H](Cc1ccccc1)NC(=O)[C@@H]1CCCN1C(=O)[C@H](N)Cc1ccccc1)C(C)C
The description is as §1.

Substrate in series [8]: CC(=O)NCCSC(=O)[C@H](CC(C)C)NC(=O)[C@H](CCCN)NC(=O)[C@@H](NC(=O)[C@H](Cc1ccc(O)cc1)NC(=O)[C@H](CCC(N)=O)NC(=O)[C@H](CC(N)=O)NC(=O)[C@H](C)NC(=O)[C@H](Cc1ccccc1)NC(=O)[C@@H]1CCCN1C(=O)[C@H](N)Cc1ccccc1)C(C)C
The series is described as §1.

Substrate in series [9]: CC(=O)NCCSC(=O)[C@H](CC(C)C)NC(=O)[C@H](CCCN)NC(=O)[C@@H](NC(=O)[C@H](Cc1ccc(O)cc1)NC(=O)[C@H](CCC(N)=O)NC(=O)[C@H](CC(N)=O)NC(=O)[C@H](CC(C)C)NC(=O)[C@H](Cc1ccccc1)NC(=O)[C@@H]1CCCN1C(=O)[C@H](N)Cc1ccccc1)C(C)C
The description is as §1.

Substrate in series [10]: CC(=O)NCCSC(=O)[C@H](CC(C)C)NC(=O)[C@H](CCCN)NC(=O)[C@@H](NC(=O)[C@H](Cc1ccc(O)cc1)NC(=O)[C@H](CCC(N)=O)NC(=O)[C@H](CC(N)=O)NC(=O)[C@H](CC(N)=O)NC(=O)[C@H](Cc1ccccc1)NC(=O)[C@@H]1CCCN1C(=O)[C@H](N)Cc1ccccc1)C(C)C
Described as §1.

Substrate in series [11]: CC(=O)NCCSC(=O)[C@H](CC(C)C)NC(=O)[C@H](CCCN)NC(=O)[C@@H](NC(=O)[C@H](Cc1ccc(O)cc1)NC(=O)[C@H](CCC(N)=O)NC(=O)[C@H](CC(N)=O)NC(=O)[C@H](CCC(=O)O)NC(=O)[C@H](Cc1ccccc1)NC(=O)[C@@H]1CCCN1C(=O)[C@H](N)Cc1ccccc1)C(C)C
Described as §1.

Substrate in series [12]: CC(=O)NCCSC(=O)[C@H](CC(C)C)NC(=O)[C@H](CCCN)NC(=O)[C@@H](NC(=O)[C@H](Cc1ccc(O)cc1)NC(=O)[C@H](CCC(N)=O)NC(=O)[C@H](CC(N)=O)NC(=O)[C@H](CCCN=C(N)N)NC(=O)[C@H](Cc1ccccc1)NC(=O)[C@@H]1CCCN1C(=O)[C@H](N)Cc1ccccc1)C(C)C
Described as §1.

Substrate in series [13]: CC(=O)NCCSC(=O)[C@H](CC(C)C)NC(=O)[C@H](CCCN)NC(=O)[C@@H](NC(=O)[C@H](Cc1ccc(O)cc1)NC(=O)[C@H](CCC(N)=O)NC(=O)[C@H](CC(N)=O)NC(=O)[C@H](Cc1c[nH]cn1)NC(=O)[C@H](Cc1ccccc1)NC(=O)[C@@H]1CCCN1C(=O)[C@H](N)Cc1ccccc1)C(C)C
The description is as §1.

Substrate in series [14]: CC(=O)NCCSC(=O)[C@H](CC(C)C)NC(=O)[C@H](CCCN)NC(=O)[C@H](CCC(N)=O)NC(=O)[C@H](Cc1ccc(O)cc1)NC(=O)[C@H](CCC(N)=O)NC(=O)[C@H](CC(N)=O)NC(=O)[C@@H](Cc1ccccc1)NC(=O)[C@H](Cc1ccccc1)NC(=O)[C@@H]1CCCN1C(=O)[C@H](N)Cc1ccccc1
The series is described as §1.

Substrate in series [15]: CC(=O)NCCSC(=O)[C@H](CC(C)C)NC(=O)[C@H](CCCN)NC(=O)[C@H](CCCN=C(N)N)NC(=O)[C@H](Cc1ccc(O)cc1)NC(=O)[C@H](CCC(N)=O)NC(=O)[C@H](CC(N)=O)NC(=O)[C@@H](Cc1ccccc1)NC(=O)[C@H](Cc1ccccc1)NC(=O)[C@@H]1CCCN1C(=O)[C@H](N)Cc1ccccc1
The series is described as §1.

“And” between values parts separate entries of the source, which are not always exact repeats. Equal values may be shown once.

B1: Thioesterase GrsT homolog tycF (Brevibacillus brevis), O30412 (protein)
chain: MKLFCFPYAGGLPGIYYSWKSRLPPTFLEIDAFEVRPHIPQPNRDVFLPTSFYELLEDVCDRITPALTETPFAFFGHSMGGLVAFELTRKLMQKGAPLPQHLFLSASRAPHAYGKLAKTYNLPHDEFVEALRKLGGTPDDVLENQELLELFLPILRADFQAVQTYEMNPDLPRQVPVNMTVLYGTEDTIALEDIWAWRDYCQGACQFFPVSGGHFFIHHQTSPILEIIQNVLKEEKTVAIHSSF
Consider B1, for which the Km in series [1] is 54 µM; in [2] it was 135 µM; in series [3], 25 µM; in [4], 22 µM; in series [5], 172 µM; in series [6] it was 13 µM and 9.2 µM. The Michaelis constant (Km) is 132 µM in [7]; 19 µM in [8]; 29 µM in series [9]; 19 µM in series [10]; 12 µM in series [11]; 24 µM in series [12]. Moreover, the values for the Michaelis constant (Km) in series [13], in series [14] and in series [15] were 82 µM, 62 µM and 33 µM, respectively.
